{
  "source": "patent EP4818209A2",
  "about": "(Primatope Therapeutics Inc., dated 2026)",
  "binders": {"B1": {"name": "humanized 2C10 antibody, Clone 2.189.2 (2C10_h3 + 2C10_l2) (antibody, V domains shown)", "VH": "QVQLVQSGAEVKKPGASVKVSCKASGYTFTNYWMHWVRQAPGQRLEWIGYINPSNDYTKYNQKFKDRATLTADKSANTAYMELSSLRSEDTAVYYCARQGFPYWGQGTLVTVSS", "VL": "EIVLTQSPATLSLSPGERATLSCSASSSVSYMHWYQQKPGQAPRRWIYDTSKLASGVPARFSGSGSGTDYTLTISSLEPEDFAVYYCHQLSSDPFTFGGGTKVEIK", "notes": "also called h2C10; mAb 2.189.2"}},
  "target": "T1, recombinant human CD40 (human, UniProt P25942 21-120, limits assumed)",
  "T1 construct": "biotinylated there; also called hCD40; purified CD40",
  "T1 sequence (P25942 21-120 limits assumed)": "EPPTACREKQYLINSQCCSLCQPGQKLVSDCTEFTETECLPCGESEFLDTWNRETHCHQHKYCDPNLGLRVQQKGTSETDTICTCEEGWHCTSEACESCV",
  "test": "binding kinetics to human CD40",
  "data": [
    {"binder": "B1", "values": [
      {"measurement": "fold difference of affinity against murine 2C10", "value": "≤ 2", "unit": "fold"}
    ]}
  ]
}
